In patent US20250179144A1:

Assays:
[1] = biological target: G115 Vγ9Vδ2+ TCR wild-type expressed on transfected cells; test: flow cytometry, tetramer-PE against CD3-APC on HEK293T cells co-transfected with CD3 and G115 WT TCR; SAv control 27
[2] = biological target: G115 Vγ9Vδ2+ TCR Glu52δ-Ala expressed on transfected HEK293T cells; test: flow cytometry, tetramer-PE against CD3-APC on HEK293T cells co-transfected with CD3 and G115 Glu52δ-Ala TCR; SAv control 32
[3] = biological target: G115 Vγ9Vδ2+ TCR Lys53δ-Ala expressed on transfected HEK293T cells; test: flow cytometry, tetramer-PE against CD3-APC on HEK293T cells co-transfected with CD3 and G115 Lys53δ-Ala TCR; SAv control 27
[4] = biological target: G115 Vγ9Vδ2+ TCR His85γ-Ala expressed on transfected HEK293T cells; test: flow cytometry, tetramer-PE against CD3-APC on HEK293T cells co-transfected with CD3 and G115 His85γ-Ala TCR; SAv control 27
[5] = biological target: full-length human BTN3A1 on transfected cells (human) (UniProt O00481); test: flow cytometry, control tetramer-PE on BTN3A1-transfected NIH-3T3 cells treated with isotype IgG1κ (black number); SAv control 25
[6] = biological target: full-length human BTN3A1 on transfected cells pre-treated (cross-linked) with anti-BTN3A mAb clone 20.1 (human); test: flow cytometry, FRET (YG 670/30) between TCR tetramer-PE and anti-BTN3A 20.1-AF647 on BTN3A1+ NIH-3T3 cells; with IgG1κ-AF647 the gate holds 0, with SAv 0
[7] = biological target: full-length human BTN3A1 on transfected cells (human) (UniProt O00481); test: flow cytometry, γδTCR tetramer-PE on BTN3A1-transfected NIH-3T3 cells treated with isotype IgG1κ (black number); SAv control 26

Sequence of mCD1d tet. ctl (P11609 22-305): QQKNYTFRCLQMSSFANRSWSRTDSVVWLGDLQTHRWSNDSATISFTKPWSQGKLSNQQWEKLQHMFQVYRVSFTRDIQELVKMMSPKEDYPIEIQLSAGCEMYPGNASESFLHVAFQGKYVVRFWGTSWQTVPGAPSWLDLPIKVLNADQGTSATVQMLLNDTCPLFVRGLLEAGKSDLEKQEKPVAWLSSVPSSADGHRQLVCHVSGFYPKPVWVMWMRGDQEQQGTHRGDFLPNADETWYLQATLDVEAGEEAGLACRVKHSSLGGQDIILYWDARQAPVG
Sequence of soluble G115 Vγ9Vδ2+ TCR wild-type (TCR delta): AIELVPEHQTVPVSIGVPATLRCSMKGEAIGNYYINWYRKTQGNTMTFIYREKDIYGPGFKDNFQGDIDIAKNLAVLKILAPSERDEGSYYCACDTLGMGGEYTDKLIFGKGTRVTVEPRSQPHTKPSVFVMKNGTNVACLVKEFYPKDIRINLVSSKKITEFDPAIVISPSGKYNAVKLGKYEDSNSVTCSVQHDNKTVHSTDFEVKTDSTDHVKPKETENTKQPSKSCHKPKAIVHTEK
Sequence of soluble G115 Vγ9Vδ2+ TCR wild-type (TCR gamma): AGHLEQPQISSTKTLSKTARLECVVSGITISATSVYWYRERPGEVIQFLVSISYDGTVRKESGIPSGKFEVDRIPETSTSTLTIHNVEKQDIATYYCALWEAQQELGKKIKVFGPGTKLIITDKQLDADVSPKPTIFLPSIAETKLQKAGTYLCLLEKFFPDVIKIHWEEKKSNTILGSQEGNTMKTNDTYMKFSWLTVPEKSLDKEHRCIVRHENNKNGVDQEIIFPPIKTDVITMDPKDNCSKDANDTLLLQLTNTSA

Substance	MFI of PE [1]	MFI of PE [2]	MFI of PE [3]	MFI of PE [4]	MFI of PE (GFP+ gate) [5]	% cells in the FRET gate [6] [%]	MFI of PE (GFP+ gate) [7]
mCD1d tet. ctl	20	26	23	22	32	–	–
BTN2A1-BTN3A1-zipper ectodomain complex (construct #1, long linker version with high affinity zippers) (ligand)	102	72	753	63	–	–	–
chimeric γδTCR tetramer: G115 pAg-reactive Vγ9+ γ-chain with 9C2 Vδ1+ δ-chain	–	–	–	–	–	–	24

Other lines, results leading:

MFI of PE [1]	MFI of PE [2]	MFI of PE [3]	MFI of PE [4]	MFI of PE (GFP+ gate) [5]	% cells in the FRET gate [6] [%]	MFI of PE (GFP+ gate) [7]	Substance
–	–	–	–	–	19	35	soluble G115 Vγ9Vδ2+ TCR wild-type
282	469	507	28	–	–	–	soluble BTN2A1 ectodomain lacking Cys247 (monomeric) (from UniProt Q7KYR7 29-246) (ligand)
